Columns and labels:
NH2-…-TAG (SEQ ID NO:5) [1] = assay: ECL capture assay; uncleaved NH2-…-TAG at 2.5 µg/mL, FXa 0.00 ng/mL
NH2-…-TAG (SEQ ID NO:5) [2] = assay: ECL capture assay; uncleaved NH2-…-TAG at 5.0 µg/mL, FXa 0.00 ng/mL
NH2-…-TAG (SEQ ID NO:5) [3] = assay: ECL capture assay; uncleaved NH2-…-TAG at 1.25 µg/mL, FXa 0.00 ng/mL
[4] = molecular target: Peptide sequence VII: NH2-…-TAG Plus; assay: competitive ECL immunoassay; anti-FLAG M1 beads with peptide sequence VII-TAG Plus, uncleaved peptide sequence VI present, Xa 0.00 ng/mL
[5] = test system: T1, NH2-IEGRDYKDDDDKGS-TAG (SEQ ID NO:5)
T1 sequence: IEGRDYKDDDDKGS

[6] = test system: T2, Peptide probe sequence I: Biotin-IEGRGS (KBv TAG Plus) amide
T2 sequence: IEGRGSK

[7] = test system: T3, Peptide probe sequence II: Biotin-(mPeg2)IEGRGS (KBv TAG Plus) amide
T3 sequence: IEGRGSK

[8] = test system: T4, Peptide sequence V: Bz-IEGRDYKDDDDKGSHHHHHH(mPeg2)(KLCBiot)-amide
T4 sequence: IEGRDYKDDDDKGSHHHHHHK

[9] = test system: T5, Peptide sequence VI: NH2-IEGRDYKDDDDKGS-amide
T5 sequence: IEGRDYKDDDDKGS

Substance: Biotin-conjugated ANTI-FLAG® M1 antibody
- Mean Signal (ECL, background without FXa) (NH2-…-TAG (SEQ ID NO:5) [1]): 856 ECL signal
- Mean Signal (ECL, background without FXa) (NH2-…-TAG (SEQ ID NO:5) [2]): 1770 ECL signal
- Mean Signal (ECL, background without FXa) (NH2-…-TAG (SEQ ID NO:5) [3]): 593 ECL signal
- Mean Signal (ECL, without FXa) [4]: 91800 ECL signal

Substance: factor Xa (FXa)
- Mean Signal (ECL, capture on anti-FLAG M1 beads), FXa 1.37 ng/mL, peptide 1.25 µg/mL [5]: 1140 ECL signal
- Mean Signal (ECL, capture on anti-FLAG M1 beads), FXa 1.37 ng/mL, peptide 2.5 µg/mL [5]: 1390 ECL signal
- Mean Signal (ECL, capture on anti-FLAG M1 beads), FXa 1.37 ng/mL, peptide 5.0 µg/mL [5]: 3720 ECL signal
- Mean Signal (ECL, capture on anti-FLAG M1 beads), FXa 4.12 ng/mL, peptide 1.25 µg/mL [5]: 2170 ECL signal
- Mean Signal (ECL, capture on anti-FLAG M1 beads), FXa 4.12 ng/mL, peptide 2.5 µg/mL [5]: 3830 ECL signal
- Mean Signal (ECL, capture on anti-FLAG M1 beads), FXa 4.12 ng/mL, peptide 5.0 µg/mL [5]: 6360 ECL signal
- Mean Signal (ECL, capture on anti-FLAG M1 beads), FXa 12.3 ng/mL, peptide 1.25 µg/mL [5]: 4440 ECL signal
- Mean Signal (ECL, capture on anti-FLAG M1 beads), FXa 12.3 ng/mL, peptide 2.5 µg/mL [5]: 7700 ECL signal
- Mean Signal (ECL, capture on anti-FLAG M1 beads), FXa 12.3 ng/mL, peptide 5.0 µg/mL [5]: 14900 ECL signal
- Mean Signal (ECL, capture on anti-FLAG M1 beads), FXa 37.0 ng/mL, peptide 1.25 µg/mL [5]: 10700 ECL signal
- Mean Signal (ECL, capture on anti-FLAG M1 beads), FXa 37.0 ng/mL, peptide 2.5 µg/mL [5]: 20100 ECL signal
- Mean Signal (ECL, capture on anti-FLAG M1 beads), FXa 37.0 ng/mL, peptide 5.0 µg/mL [5]: 32300 ECL signal
- Mean Signal (ECL, capture on anti-FLAG M1 beads), FXa 111 ng/mL, peptide 1.25 µg/mL [5]: 20500 ECL signal
- Mean Signal (ECL, capture on anti-FLAG M1 beads), FXa 111 ng/mL, peptide 2.5 µg/mL [5]: 41800 ECL signal
- Mean Signal (ECL, capture on anti-FLAG M1 beads), FXa 111 ng/mL, peptide 5.0 µg/mL [5]: 62100 ECL signal
- Mean Signal (ECL, capture on anti-FLAG M1 beads), FXa 333 ng/mL, peptide 1.25 µg/mL [5]: 52800 ECL signal
- Mean Signal (ECL, capture on anti-FLAG M1 beads), FXa 333 ng/mL, peptide 2.5 µg/mL [5]: 62700 ECL signal
- Mean Signal (ECL, capture on anti-FLAG M1 beads), FXa 333 ng/mL, peptide 5.0 µg/mL [5]: 78700 ECL signal
- Mean Signal (ECL, capture on anti-FLAG M1 beads), FXa 1000 ng/mL, peptide 1.25 µg/mL [5]: 69000 ECL signal
- Mean Signal (ECL, capture on anti-FLAG M1 beads), FXa 1000 ng/mL, peptide 2.5 µg/mL [5]: 78200 ECL signal
- Mean Signal (ECL, capture on anti-FLAG M1 beads), FXa 1000 ng/mL, peptide 5.0 µg/mL [5]: 86900 ECL signal
- Signal/Background, FXa 1.37 ng/mL, peptide 1.25 µg/mL [5]: 1.9
- Signal/Background, FXa 1.37 ng/mL, peptide 2.5 µg/mL [5]: 1.6
- Signal/Background, FXa 1.37 ng/mL, peptide 5.0 µg/mL [5]: 2.1
- Signal/Background, FXa 4.12 ng/mL, peptide 1.25 µg/mL [5]: 3.7
- Signal/Background, FXa 4.12 ng/mL, peptide 2.5 µg/mL [5]: 4.5
- Signal/Background, FXa 4.12 ng/mL, peptide 5.0 µg/mL [5]: 3.6
- Signal/Background, FXa 12.3 ng/mL, peptide 1.25 µg/mL [5]: 7.5
- Signal/Background, FXa 12.3 ng/mL, peptide 2.5 µg/mL [5]: 9
- Signal/Background, FXa 12.3 ng/mL, peptide 5.0 µg/mL [5]: 8.4
- Signal/Background, FXa 37.0 ng/mL, peptide 1.25 µg/mL [5]: 18
- Signal/Background, FXa 37.0 ng/mL, peptide 2.5 µg/mL [5]: 24
- Signal/Background, FXa 37.0 ng/mL, peptide 5.0 µg/mL [5]: 18
- Signal/Background, FXa 111 ng/mL, peptide 1.25 µg/mL [5]: 35
- Signal/Background, FXa 111 ng/mL, peptide 2.5 µg/mL [5]: 49
- Signal/Background, FXa 111 ng/mL, peptide 5.0 µg/mL [5]: 35
- Signal/Background, FXa 333 ng/mL, peptide 1.25 µg/mL [5]: 89
- Signal/Background, FXa 333 ng/mL, peptide 2.5 µg/mL [5]: 73
- Signal/Background, FXa 333 ng/mL, peptide 5.0 µg/mL [5]: 45
- Signal/Background, FXa 1000 ng/mL, peptide 1.25 µg/mL [5]: 116
- Signal/Background, FXa 1000 ng/mL, peptide 2.5 µg/mL [5]: 91
- Signal/Background, FXa 1000 ng/mL, peptide 5.0 µg/mL [5]: 49
- % Signal Decrease, FXa 78.1 ng/mL [6]: -3%
- % Signal Decrease, FXa 156 ng/mL [6]: -3%
- % Signal Decrease, FXa 313 ng/mL [6]: -9%
- % Signal Decrease, FXa 625 ng/mL [6]: -15%
- % Signal Decrease, FXa 1250 ng/mL [6]: -31%
- % Signal Decrease, FXa 2500 ng/mL [6]: -53%
- % Signal Decrease, FXa 5000 ng/mL [6]: -76%
- Mean Signal (ECL), FXa 78.1 ng/mL [6]: 414000 ECL signal
- Mean Signal (ECL), FXa 156 ng/mL [6]: 413000 ECL signal
- Mean Signal (ECL), FXa 313 ng/mL [6]: 388000 ECL signal
- Mean Signal (ECL), FXa 625 ng/mL [6]: 363000 ECL signal
- Mean Signal (ECL), FXa 1250 ng/mL [6]: 296000 ECL signal
- Mean Signal (ECL), FXa 2500 ng/mL [6]: 202000 ECL signal
- Mean Signal (ECL), FXa 5000 ng/mL [6]: 104000 ECL signal
- % Signal Decrease, FXa 78.1 ng/mL [7]: 0%
- % Signal Decrease, FXa 156 ng/mL [7]: -4%
- % Signal Decrease, FXa 313 ng/mL [7]: -11%
- % Signal Decrease, FXa 625 ng/mL [7]: -10%
- % Signal Decrease, FXa 1250 ng/mL [7]: -24%
- % Signal Decrease, FXa 2500 ng/mL [7]: -39%
- % Signal Decrease, FXa 5000 ng/mL [7]: -66%
- Mean Signal (ECL), FXa 78.1 ng/mL [7]: 340000 ECL signal
- Mean Signal (ECL), FXa 156 ng/mL [7]: 326000 ECL signal
- Mean Signal (ECL), FXa 313 ng/mL [7]: 303000 ECL signal
- Mean Signal (ECL), FXa 625 ng/mL [7]: 306000 ECL signal
- Mean Signal (ECL), FXa 1250 ng/mL [7]: 257000 ECL signal
- Mean Signal (ECL), FXa 2500 ng/mL [7]: 209000 ECL signal
- Mean Signal (ECL), FXa 5000 ng/mL [7]: 117000 ECL signal
- Mean Signal (ECL, TAG Plus anti-FLAG M1 detector), FXa 0.686 ng/mL, 10 minute incubation [8]: 856 ECL signal
- Mean Signal (ECL, TAG Plus anti-FLAG M1 detector), FXa 0.686 ng/mL, 20 minute incubation [8]: 1050 ECL signal
- Mean Signal (ECL, TAG Plus anti-FLAG M1 detector), FXa 2.06 ng/mL, 10 minute incubation [8]: 1430 ECL signal
- Mean Signal (ECL, TAG Plus anti-FLAG M1 detector), FXa 2.06 ng/mL, 20 minute incubation [8]: 2110 ECL signal
- Mean Signal (ECL, TAG Plus anti-FLAG M1 detector), FXa 6.17 ng/mL, 10 minute incubation [8]: 3100 ECL signal
- Mean Signal (ECL, TAG Plus anti-FLAG M1 detector), FXa 6.17 ng/mL, 20 minute incubation [8]: 6040 ECL signal
- Mean Signal (ECL, TAG Plus anti-FLAG M1 detector), FXa 18.5 ng/mL, 10 minute incubation [8]: 8790 ECL signal
- Mean Signal (ECL, TAG Plus anti-FLAG M1 detector), FXa 18.5 ng/mL, 20 minute incubation [8]: 20700 ECL signal
- Mean Signal (ECL, TAG Plus anti-FLAG M1 detector), FXa 55.6 ng/mL, 10 minute incubation [8]: 33700 ECL signal
- Mean Signal (ECL, TAG Plus anti-FLAG M1 detector), FXa 55.6 ng/mL, 20 minute incubation [8]: 74000 ECL signal
- Mean Signal (ECL, TAG Plus anti-FLAG M1 detector), FXa 167 ng/mL, 10 minute incubation [8]: 113000 ECL signal
- Mean Signal (ECL, TAG Plus anti-FLAG M1 detector), FXa 167 ng/mL, 20 minute incubation [8]: 225000 ECL signal
- Mean Signal (ECL, TAG Plus anti-FLAG M1 detector), FXa 500 ng/mL, 10 minute incubation [8]: 298000 ECL signal
- Mean Signal (ECL, TAG Plus anti-FLAG M1 detector), FXa 500 ng/mL, 20 minute incubation [8]: 498000 ECL signal
- Signal/Background, FXa 0.686 ng/mL, 10 minute incubation [8]: 2.5
- Signal/Background, FXa 0.686 ng/mL, 20 minute incubation [8]: 3.3
- Signal/Background, FXa 2.06 ng/mL, 10 minute incubation [8]: 4.1
- Signal/Background, FXa 2.06 ng/mL, 20 minute incubation [8]: 6.6
- Signal/Background, FXa 6.17 ng/mL, 10 minute incubation [8]: 9
- Signal/Background, FXa 6.17 ng/mL, 20 minute incubation [8]: 19
- Signal/Background, FXa 18.5 ng/mL, 10 minute incubation [8]: 25
- Signal/Background, FXa 18.5 ng/mL, 20 minute incubation [8]: 65
- Signal/Background, FXa 55.6 ng/mL, 10 minute incubation [8]: 98
- Signal/Background, FXa 55.6 ng/mL, 20 minute incubation [8]: 232
- Signal/Background, FXa 167 ng/mL, 10 minute incubation [8]: 328
- Signal/Background, FXa 167 ng/mL, 20 minute incubation [8]: 706
- Signal/Background, FXa 500 ng/mL, 10 minute incubation [8]: 864
- Signal/Background, FXa 500 ng/mL, 20 minute incubation [8]: 1560
- % Signal Decrease, Xa 0.686 ng/mL [9]: -8.5%
- % Signal Decrease, Xa 2.06 ng/mL [9]: -22%
- % Signal Decrease, Xa 6.17 ng/mL [9]: -42%
- % Signal Decrease, Xa 18.5 ng/mL [9]: -60%
- % Signal Decrease, Xa 55.6 ng/mL [9]: -75%
- % Signal Decrease, Xa 167 ng/mL [9]: -84%
- % Signal Decrease, Xa 500 ng/mL [9]: -89%
- Mean Signal (ECL, competitive format), Xa 0.686 ng/mL [9]: 84000 ECL signal
- Mean Signal (ECL, competitive format), Xa 2.06 ng/mL [9]: 71900 ECL signal
- Mean Signal (ECL, competitive format), Xa 6.17 ng/mL [9]: 53000 ECL signal
- Mean Signal (ECL, competitive format), Xa 18.5 ng/mL [9]: 36400 ECL signal
- Mean Signal (ECL, competitive format), Xa 55.6 ng/mL [9]: 22500 ECL signal
- Mean Signal (ECL, competitive format), Xa 167 ng/mL [9]: 14300 ECL signal
- Mean Signal (ECL, competitive format), Xa 500 ng/mL [9]: 9830 ECL signal

Reference: US20140141450A1
